Publication PMC10094722, “How Single Amino Acid Substitutions Can Disrupt a Protein Hetero-Dimer Interface: Computational and Experimental Studies of the LigAB Dioxygenase from Sphingobium sp. Strain SYK-6” (International Journal of Molecular Sciences, 2023)
“And” between values parts separate entries of the source, which are not always exact repeats. Equal values may be shown once.

Experiments:
[1] = molecular target: T1, LigA F103T (Sphingobium sp. strain SYK-6, UniProt P22635 1-139, F103T); assay: pull-down; co-purification of untagged LigB with His6-LigA on HisPur Ni-NTA resin from lysate of co-expressing E. coli, aerobic; 50 mM HEPES, 300 mM NaCl, pH 8.0, imidazole step gradient (62.5, 125, 250 mM); fractions on SDS-PAGE, Coomassie, quantified with ImageQuant; conditions: partners not purified
T1 construct: Protocatechuate 4,5-dioxygenase alpha chain (LigA), Sphingobium sp. strain SYK-6, with F103T; Site-directed mutagenesis as described by Barry et al; source: E. coli BL21, pET15b, co-expressed with LigB; in lysate; not shown: His6, N-terminal, kept
T1 sequence: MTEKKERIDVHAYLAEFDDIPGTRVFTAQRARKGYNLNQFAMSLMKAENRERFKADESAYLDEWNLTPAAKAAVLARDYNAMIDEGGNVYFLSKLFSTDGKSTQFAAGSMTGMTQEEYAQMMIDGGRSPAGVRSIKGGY

[2] = molecular target: T2, LigA F103H (Sphingobium sp. strain SYK-6, UniProt P22635 1-139, F103H); assay: as above; conditions: partners not purified
T2 construct: Protocatechuate 4,5-dioxygenase alpha chain (LigA), Sphingobium sp. strain SYK-6, with F103H; Site-directed mutagenesis as described by Barry et al; source: E. coli BL21, pET15b, co-expressed with LigB; in lysate; not shown: His6, N-terminal, kept
T2 sequence: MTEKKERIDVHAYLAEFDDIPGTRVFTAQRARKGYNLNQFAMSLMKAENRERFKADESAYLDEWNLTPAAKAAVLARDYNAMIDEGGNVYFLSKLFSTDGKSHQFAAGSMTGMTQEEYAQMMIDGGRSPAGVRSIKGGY

[3] = molecular target: T3, LigA F103V (Sphingobium sp. strain SYK-6, UniProt P22635 1-139, F103V); assay: as above; conditions: partners not purified
T3 construct: Protocatechuate 4,5-dioxygenase alpha chain (LigA), Sphingobium sp. strain SYK-6, with F103V; Site-directed mutagenesis as described by Barry et al; source: E. coli BL21, pET15b, co-expressed with LigB; in lysate; not shown: His6, N-terminal, kept
T3 sequence: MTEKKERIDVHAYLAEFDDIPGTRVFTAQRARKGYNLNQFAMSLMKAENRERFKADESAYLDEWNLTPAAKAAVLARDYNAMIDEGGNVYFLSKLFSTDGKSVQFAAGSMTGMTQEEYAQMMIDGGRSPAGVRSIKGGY

[4] = molecular target: T4, LigA F103A (Sphingobium sp. strain SYK-6, UniProt P22635 1-139, F103A); assay: as above; conditions: partners not purified
T4 construct: Protocatechuate 4,5-dioxygenase alpha chain (LigA), Sphingobium sp. strain SYK-6, with F103A; Site-directed mutagenesis as described by Barry et al; also called F103α to alanine; source: E. coli BL21, pET15b, co-expressed with LigB; in lysate and purified (Ni-NTA); not shown: His6, N-terminal, kept
T4 sequence: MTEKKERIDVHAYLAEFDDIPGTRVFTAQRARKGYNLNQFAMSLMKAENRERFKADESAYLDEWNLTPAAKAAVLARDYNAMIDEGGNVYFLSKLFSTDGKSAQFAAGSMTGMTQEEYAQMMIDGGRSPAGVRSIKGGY

[5] = molecular target: T5, LigA F103S (Sphingobium sp. strain SYK-6, UniProt P22635 1-139, F103S); assay: as above; conditions: partners not purified
T5 construct: Protocatechuate 4,5-dioxygenase alpha chain (LigA), Sphingobium sp. strain SYK-6, with F103S; Site-directed mutagenesis as described by Barry et al; source: E. coli BL21, pET15b, co-expressed with LigB; in lysate and purified (Ni-NTA); not shown: His6, N-terminal, kept
T5 sequence: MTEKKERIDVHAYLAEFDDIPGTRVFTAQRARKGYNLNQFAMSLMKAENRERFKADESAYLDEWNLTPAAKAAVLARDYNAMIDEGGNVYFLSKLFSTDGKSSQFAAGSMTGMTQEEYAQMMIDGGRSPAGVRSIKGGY

[6] = molecular target: T6, LigA F103L (Sphingobium sp. strain SYK-6, UniProt P22635 1-139, F103L); assay: as above; conditions: partners not purified
T6 construct: Protocatechuate 4,5-dioxygenase alpha chain (LigA), Sphingobium sp. strain SYK-6, with F103L; Site-directed mutagenesis as described by Barry et al; source: E. coli BL21, pET15b, co-expressed with LigB; in lysate; not shown: His6, N-terminal, kept
T6 sequence: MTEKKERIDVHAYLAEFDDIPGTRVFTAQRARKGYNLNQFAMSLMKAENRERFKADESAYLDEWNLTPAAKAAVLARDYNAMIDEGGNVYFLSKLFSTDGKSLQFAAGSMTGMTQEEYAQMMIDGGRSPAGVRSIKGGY

[7] = molecular target: T7, LigA, alpha subunit of protocatechuate 4,5-dioxygenase (LigAB), wild-type (Sphingobium sp. strain SYK-6, UniProt P22635 1-139); assay: as above; conditions: partners not purified
T7 construct: Protocatechuate 4,5-dioxygenase alpha chain (LigA), Sphingobium sp. strain SYK-6; 17.711 kDa with the His6-tag; also called α subunit; source: E. coli BL21, pET15b, co-expressed with LigB; in lysate and purified (Ni-NTA); not shown: His6, N-terminal, kept
T7 sequence: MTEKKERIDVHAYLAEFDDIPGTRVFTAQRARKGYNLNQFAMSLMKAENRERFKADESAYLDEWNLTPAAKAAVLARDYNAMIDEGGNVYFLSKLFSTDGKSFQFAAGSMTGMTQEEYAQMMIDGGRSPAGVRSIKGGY

[8] = molecular target: the molecule itself; assay: native gel or EMSA; 10% native polyacrylamide gel of purified LigAB (wild-type, F103A, F103S), Coomassie stained, 6.25 to 50 ug protein per lane; masses calculated from the bands

B1: LigB, beta subunit of protocatechuate 4,5-dioxygenase (LigAB) (natural protein, Sphingobium sp. strain SYK-6)
chain: MARVTTGITSSHIPALGAAIQTGTSDNDYWGPVFKGYQPIRDWIKQPGNMPDVVILVYNDHASAFDMNIIPTFAIGCAETFKPADEGWGPRPVPDVKGHPDLAWHIAQSLILDEFDMTIMNQMDVDHGCTVPLSMIFGEPEEWPCKVIPFPVNVVTYPPPSGKRCFALGDSIRAAVESFPEDLNVHVWGTGGMSHQLQGPRAGLINKEFDLNFIDKLISDPEELSKMPHIQYLRESGSEGVELVMWLIMRGALPEKVRDLYTFYHIPASNTALGAMILQPEETAGTPLEPRKVMSGHSLAQA
notes: Protocatechuate 4,5-dioxygenase beta chain (LigB), Sphingobium sp. strain SYK-6; 33.292 kDa; untagged; also called β subunit; source: E. coli BL21, pET15b, co-expressed with His6-LigA (wild-type or mutant); in lysate and co-purified (Ni-NTA)
α:β ratio of abundances in elution fractions E3-1 to E3-5 [1]: 1.64
β:α ratio of abundances in elution fractions E3-1 to E3-5 [1]: 0.608
α:β ratio of abundances in elution fractions E3-1 to E3-5 [2]: 2.19
β:α ratio of abundances in elution fractions E3-1 to E3-5 [2]: 0.456
α:β ratio of abundances in elution fractions E3-1 to E3-5 [3]: 0.79
β:α ratio of abundances in elution fractions E3-1 to E3-5 [3]: 1.27
α:β ratio of abundances in elution fractions E3-1 to E3-5 [4]: 0.817
β:α ratio of abundances in elution fractions E3-1 to E3-5 [4]: 1.22
α:β ratio of abundances in elution fractions E3-1 to E3-5 [5]: 1.04
β:α ratio of abundances in elution fractions E3-1 to E3-5 [5]: 0.959
α:β ratio of abundances in elution fractions E3-1 to E3-5 [6]: 0.879
β:α ratio of abundances in elution fractions E3-1 to E3-5 [6]: 1.14
α:β ratio of abundances in elution fractions E3-1 to E3-5 [7]: 1.08
β:α ratio of abundances in elution fractions E3-1 to E3-5 [7]: 0.928

B2: LigAB α/β heterodimer, wild-type (protocatechuate 4,5-dioxygenase) (complex, Sphingobium sp. strain SYK-6)
chain 1: MTEKKERIDVHAYLAEFDDIPGTRVFTAQRARKGYNLNQFAMSLMKAENRERFKADESAYLDEWNLTPAAKAAVLARDYNAMIDEGGNVYFLSKLFSTDGKSFQFAAGSMTGMTQEEYAQMMIDGGRSPAGVRSIKGGY
chain 2: MARVTTGITSSHIPALGAAIQTGTSDNDYWGPVFKGYQPIRDWIKQPGNMPDVVILVYNDHASAFDMNIIPTFAIGCAETFKPADEGWGPRPVPDVKGHPDLAWHIAQSLILDEFDMTIMNQMDVDHGCTVPLSMIFGEPEEWPCKVIPFPVNVVTYPPPSGKRCFALGDSIRAAVESFPEDLNVHVWGTGGMSHQLQGPRAGLINKEFDLNFIDKLISDPEELSKMPHIQYLRESGSEGVELVMWLIMRGALPEKVRDLYTFYHIPASNTALGAMILQPEETAGTPLEPRKVMSGHSLAQA
notes: Protocatechuate 4,5-dioxygenase alpha chain (LigA), Sphingobium sp. strain SYK-6; as m1; Protocatechuate 4,5-dioxygenase beta chain (LigB), Sphingobium sp. strain SYK-6; as m2; The heterodimer as the unit that associates with itself in the native gel; also called wild-type LigAB; WT-LigAB; source: E. coli BL21, pET15b, co-expressed, purified (Ni-NTA); not shown: His6, N-terminal, kept
stoichiometry N [8]: 3

B3: LigAB α/β heterodimer with LigA F103S (complex, Sphingobium sp. strain SYK-6)
chain 1: MTEKKERIDVHAYLAEFDDIPGTRVFTAQRARKGYNLNQFAMSLMKAENRERFKADESAYLDEWNLTPAAKAAVLARDYNAMIDEGGNVYFLSKLFSTDGKSSQFAAGSMTGMTQEEYAQMMIDGGRSPAGVRSIKGGY
chain 2: MARVTTGITSSHIPALGAAIQTGTSDNDYWGPVFKGYQPIRDWIKQPGNMPDVVILVYNDHASAFDMNIIPTFAIGCAETFKPADEGWGPRPVPDVKGHPDLAWHIAQSLILDEFDMTIMNQMDVDHGCTVPLSMIFGEPEEWPCKVIPFPVNVVTYPPPSGKRCFALGDSIRAAVESFPEDLNVHVWGTGGMSHQLQGPRAGLINKEFDLNFIDKLISDPEELSKMPHIQYLRESGSEGVELVMWLIMRGALPEKVRDLYTFYHIPASNTALGAMILQPEETAGTPLEPRKVMSGHSLAQA
notes: Protocatechuate 4,5-dioxygenase alpha chain (LigA), Sphingobium sp. strain SYK-6, with F103S; as m6; Protocatechuate 4,5-dioxygenase beta chain (LigB), Sphingobium sp. strain SYK-6; as m2; The heterodimer as the unit that associates with itself in the native gel; also called F103S variant; source: E. coli BL21, pET15b, co-expressed, purified (Ni-NTA); not shown: His6, N-terminal, kept
stoichiometry N [8]: 3 and 6

B4: LigAB α/β heterodimer with LigA F103A (complex, Sphingobium sp. strain SYK-6)
chain 1: MTEKKERIDVHAYLAEFDDIPGTRVFTAQRARKGYNLNQFAMSLMKAENRERFKADESAYLDEWNLTPAAKAAVLARDYNAMIDEGGNVYFLSKLFSTDGKSAQFAAGSMTGMTQEEYAQMMIDGGRSPAGVRSIKGGY
chain 2: MARVTTGITSSHIPALGAAIQTGTSDNDYWGPVFKGYQPIRDWIKQPGNMPDVVILVYNDHASAFDMNIIPTFAIGCAETFKPADEGWGPRPVPDVKGHPDLAWHIAQSLILDEFDMTIMNQMDVDHGCTVPLSMIFGEPEEWPCKVIPFPVNVVTYPPPSGKRCFALGDSIRAAVESFPEDLNVHVWGTGGMSHQLQGPRAGLINKEFDLNFIDKLISDPEELSKMPHIQYLRESGSEGVELVMWLIMRGALPEKVRDLYTFYHIPASNTALGAMILQPEETAGTPLEPRKVMSGHSLAQA
notes: Protocatechuate 4,5-dioxygenase alpha chain (LigA), Sphingobium sp. strain SYK-6, with F103A; as m3; Protocatechuate 4,5-dioxygenase beta chain (LigB), Sphingobium sp. strain SYK-6; as m2; The heterodimer as the unit that associates with itself in the native gel; also called F103A mutant enzyme; source: E. coli BL21, pET15b, co-expressed, purified (Ni-NTA); not shown: His6, N-terminal, kept
binding result [8]: binds
